From US20080181887A1 (published 2008)
Residue numbers refer to the chain shown, from its start. Names and notes keep the numbering of the source.

Tests used:
human FcRn [1] = target: T1, human FcRn (human); test: BIAcore SPR, equilibrium binding with Scatchard analysis, soluble human FcRn over immobilized IgG1, pH 6.0
T1 construct: mature; Soluble heterodimer from baculovirus-infected High-Five cells, purified on IgG Sepharose; also called recombinant human FcRn; the human receptor
Experimental: (§1) The interaction of soluble murine and human FcRn with immobilized human IgG1 variants was monitored by surface plasmon resonance detection using a BIAcore 3000 instrument (Pharmacia Biosensor, Uppsala, Sweden). […] Protein concentrations were calculated by the bicinchoninic acid (BCA) method for both human and murine FcRn or using the 1% extinction coefficient at 280 m of 1.5 for IgG1 wild type and variants. The latter were coupled to the dextran matrix of a CM5 sensor chip (Pharmacia Biosensor) using an Amine Coupling Kit as described (Johnson et al., supra). The protein concentrations ranged from 3-5 μg/ml in 10 mM sodium acetate, pH 5.0. The activation period was set for 7 minutes at a flow rate of 10 μl/min and the immobilization period was set to between 10 and 20 minutes at a flow rate of 10 μl/min. Excess reactive esters were quenched by injection of 70 μl of 1.0 methanolamine hydrochloride, pH 8.5. […] Human and murine FcRn were buffer exchanged against 50 mM PBS buffer pH 6.0 containing 0.05% Tween 20. Dilutions were made in the same buffer. All binding experiments were performed at 25 C. with concentrations ranging from 120 to 1 μg/ml at a flow rate of 5 to 10 μl/min; data were collected for 25 to 50 minutes and three 1-minute pulses of PBS buffer pH 7.2 were used to regenerate the surfaces. FcRn was also flowed over an uncoated cell and the sensorgrams from these blank runs subtracted from those obtained with IgG1-coupled chips. Runs were analyzed using the software BIAevaluation 3.1 (Pharmacia). Association constants (KAS) were determined from Scatchard analysis by measuring the concentration of free reactants and complex at equilibrium after correction for nonspecific binding.

murine FcRn [2] = target: T2, murine FcRn (murine, UniProt P01887 21-119, limits assumed); test: BIAcore SPR, equilibrium binding with Scatchard analysis, soluble murine FcRn over immobilized IgG1, pH 6.0
T2 construct: the whole entry is named; also called mouse FcRn; muFcRn
T2 sequence: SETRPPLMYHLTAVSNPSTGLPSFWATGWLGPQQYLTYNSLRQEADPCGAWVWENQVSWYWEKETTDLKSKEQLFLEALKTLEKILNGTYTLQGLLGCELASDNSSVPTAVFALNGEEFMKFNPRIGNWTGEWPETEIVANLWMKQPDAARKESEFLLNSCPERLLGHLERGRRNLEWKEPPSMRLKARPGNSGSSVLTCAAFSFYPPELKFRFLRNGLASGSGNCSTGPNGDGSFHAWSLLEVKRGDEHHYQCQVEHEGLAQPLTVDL
T2 sequence (b2m): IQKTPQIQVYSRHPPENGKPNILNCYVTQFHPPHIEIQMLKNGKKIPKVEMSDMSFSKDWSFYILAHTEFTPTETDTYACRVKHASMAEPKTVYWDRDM
Experimental: as §1

murine FcRn [3] = target: T2, murine FcRn; test: BIAcore SPR, Scatchard analysis of FIG. 7A, murine FcRn 1 nM to 556 nM over 4000 RU of immobilized IgG1
Experimental: Runs were analyzed using the software BIAevaluation 3.1 (Pharmacia). Association constants (KAS) were determined from Scatchard analysis by measuring the concentration of free reactants and complex at equilibrium after correction for nonspecific binding. […] The concentration of free analyte (human or murine FcRn) is equal to the bulk analyte concentration since analyte is constantly replenished during sample injection. The concentration of free ligand on the surface of the sensor chip can be derived from the concentration of the complex and from the total binding capacity of the surface as KA=Req/C(Rmax-Req) where C is the free analyte concentration, Req is the steady-state response, and Rmax is the total surface binding capacity. Rearranging, the equation reads: Req/C=KA Rmax-KA Req.
In all cases, equilibrium (or near-equilibrium) binding levels were reached within 50 minutes. To estimate the increase in RU resulting from the non specific effect of protein on the bulk refractive index, binding of FcRn to an uncoated cell was measured and the sensorgrams from these blank runs subtracted from those obtained with IgG1-coupled chips.

human FcRn [4] = target: T1, human FcRn; test: BIAcore SPR, soluble human FcRn over immobilized IgG1, pH 6.0
Experimental: (§2) The interaction of soluble murine and human FcRn with immobilized human IgG1 variants was monitored by surface plasmon resonance detection using a BIAcore 3000 instrument (Pharmacia Biosensor, Uppsala, Sweden). […] Protein concentrations were calculated by the bicinchoninic acid (BCA) method for both human and murine FcRn or using the 1% extinction coefficient at 280 m of 1.5 for IgG1 wild type and variants. The latter were coupled to the dextran matrix of a CM5 sensor chip (Pharmacia Biosensor) using an Amine Coupling Kit as described (Johnson et al., supra). The protein concentrations ranged from 3-5 μg/ml in 10 mM sodium acetate, pH 5.0. The activation period was set for 7 minutes at a flow rate of 10 μl/min and the immobilization period was set to between 10 and 20 minutes at a flow rate of 10 μl/min. Excess reactive esters were quenched by injection of 70 μl of 1.0 methanolamine hydrochloride, pH 8.5. […] Human and murine FcRn were buffer exchanged against 50 mM PBS buffer pH 6.0 containing 0.05% Tween 20. Dilutions were made in the same buffer. […] Runs were analyzed using the software BIAevaluation 3.1 (Pharmacia). Association constants (KAS) were determined from Scatchard analysis by measuring the concentration of free reactants and complex at equilibrium after correction for nonspecific binding.

murine FcRn [5] = target: T2, murine FcRn; test: BIAcore SPR, soluble murine FcRn over immobilized IgG1, pH 6.0
Experimental: as §2

T1 sequence (chain, as listed by the source limits assumed, chain 1 of 2): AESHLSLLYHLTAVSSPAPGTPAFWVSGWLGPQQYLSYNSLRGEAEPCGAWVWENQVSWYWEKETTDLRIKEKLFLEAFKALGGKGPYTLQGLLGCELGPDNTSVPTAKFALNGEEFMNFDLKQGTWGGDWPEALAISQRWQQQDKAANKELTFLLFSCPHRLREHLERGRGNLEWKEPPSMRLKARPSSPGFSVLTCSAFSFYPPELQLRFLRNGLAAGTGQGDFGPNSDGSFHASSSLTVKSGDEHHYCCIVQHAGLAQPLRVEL
T1 sequence (P61769 21-119 limits assumed, chain 2 of 2): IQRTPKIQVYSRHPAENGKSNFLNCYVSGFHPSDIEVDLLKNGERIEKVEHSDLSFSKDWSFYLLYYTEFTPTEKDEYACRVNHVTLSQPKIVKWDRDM

B1: human IgG1 MEDI-493 (SYNAGIS) G385R/Q386T/P387R/N389P (antibody)
heavy (part 1 of 2): QVTLRESGPALVKPTQTLTLTCTFSGFSLSTSGMSVGWIRQPPGKALEWLADIWWDDKKDYNPSLKSRLTISKDTSKNQVVLKVTNMDPADTATYYCARSMITNWYFDVWGAGTTVTVSS
heavy (part 2 of 2): EPKSCDKTHTCPPCPAPELLGGPSVFLFPPKPKDTLMISRTPEVTCVVVDVSHEDPEVKFNWYVDGVEVHNAKTKPREEQYNSTYRVVSVLTVLHQDWLNGKEYKCKVSNKALPAPIEKTISKAKGQPREPQVYTLPPSREEMTKNQVSLTCLVKGFYPSDIAVEWESNRTREPNYKTTPPVLDSDGSFFLYSKLTVDKSRWQQGNVFSCSVMHEALHNHYTQKSLSLSPGK
light: DIQMTQSPSTLSASVGDRVTITCKCQLSVGYMHWYQQKPGKAPKLLIYDTSKLASGVPSRFSGSGSGTEFTLTISSLQPDDFATYYCFQGSGYPFTFGGGTKLEIK
notes: HEK 293, protein A purified; not shown: human IgG1 heavy chain CH1 domain (between VH and hinge-Fc); human kappa light chain constant domain
ΔΔG (ΔG wild type - ΔG mutant) (human FcRn [1]): 0.3 kcal/mol

B2: human IgG1 MEDI-493 (SYNAGIS) N434F/Y436H (antibody)
heavy (part 1 of 2): B1 heavy (part 1 of 2)
heavy (part 2 of 2): not shown
light: B1 light
notes: as for B1
ΔΔG (ΔG wild type - ΔG mutant) (human FcRn [1]): 1 kcal/mol
Kd (murine FcRn [2]): 9 nM
ΔΔG (ΔG wild type - ΔG mutant) (murine FcRn [2]): 2 kcal/mol

B3: human IgG1 MEDI-493 (SYNAGIS) H433K/N434F/Y436H (antibody)
heavy (part 1 of 2): B1 heavy (part 1 of 2)
heavy (part 2 of 2): B1 heavy (part 2 of 2) with R170G, T171Q, R172P, P174N, H218K, N219F, Y221H
light: B1 light
notes: as for B1
ΔΔG (ΔG wild type - ΔG mutant) (human FcRn [1]): 1.1 kcal/mol
Kd (murine FcRn [2]): 14 nM
ΔΔG (ΔG wild type - ΔG mutant) (murine FcRn [2]): 1.8 kcal/mol

B4: human IgG1 MEDI-493 (SYNAGIS) M252W (antibody)
heavy (part 1 of 2): B1 heavy (part 1 of 2)
heavy (part 2 of 2): not shown
light: B1 light
notes: as for B1
ΔΔG (ΔG wild type - ΔG mutant) (human FcRn [1]): 1.1 kcal/mol
Kd (murine FcRn [2]): 30 nM
ΔΔG (ΔG wild type - ΔG mutant) (murine FcRn [2]): 1.3 kcal/mol

B5: human IgG1 MEDI-493 (SYNAGIS) M252Y/S254T/T256E (antibody)
heavy (part 1 of 2): B1 heavy (part 1 of 2)
heavy (part 2 of 2): B1 heavy (part 2 of 2) with M37Y, S39T, T41E, R170G, T171Q, R172P, P174N
light: B1 light
notes: HEK 293, protein A purified; also called IgG1/M252Y/S254T/T256E; not shown: human IgG1 heavy chain CH1 domain (between VH and hinge-Fc); human kappa light chain constant domain
ΔΔG (ΔG wild type - ΔG mutant) (human FcRn [1]): 1.4 kcal/mol
Kd (murine FcRn [2]): 27 nM
ΔΔG (ΔG wild type - ΔG mutant) (murine FcRn [2]): 1.4 kcal/mol
Kd (murine FcRn [3]): 24 nM

B6: human IgG1 MEDI-493 (SYNAGIS) I253A (antibody)
heavy (part 1 of 2): B1 heavy (part 1 of 2)
heavy (part 2 of 2): not shown
light: B1 light
notes: HEK 293, protein A purified; also called 1253A; not shown: human IgG1 heavy chain CH1 domain (between VH and hinge-Fc); human kappa light chain constant domain
binding result (human FcRn [4]): no binding (tested: FcRn 1 to 120 µg/ml)
binding result (murine FcRn [5]): no binding (tested: FcRn 1 to 120 µg/ml)

B7: human IgG1 MEDI-493 (SYNAGIS) M252Y/T256Q (antibody)
heavy (part 1 of 2): B1 heavy (part 1 of 2)
heavy (part 2 of 2): not shown
light: B1 light
notes: as for B1
ΔΔG (ΔG wild type - ΔG mutant) (human FcRn [1]): 0.9 kcal/mol
